In IntAct's records for PubMed 26192437:

B1: CDK5 regulatory subunit-associated protein 2 (Homo sapiens), Q96SN8 (parent)
chain: MMDLVLEEDVTVPGTLSGCSGLVPSVPDDLDGINPNAGLGNGLLPNVSEETVSPTRARNMKDFENQITELKKENFNLKLRIYFLEERMQQEFHGPTEHIYKTNIELKVEVESLKRELQEREQLLIKASKAVESLAEAGGSEIQRVKEDARKKVQQVEDLLTKRILLLEKDVTAAQAELEKAFAGTETEKALRLRLESKLSEMKKMHEGDLAMALVLDEKDRLIEELKLSLKSKEALIQCLKEEKSQMACPDENVSSGELRGLCAAPREEKERETEAAQMEHQKERNSFEERIQALEEDLREKEREIATEKKNSLKRDKAIQGLTMALKSKEKKVEELNSEIEKLSAAFAKAREALQKAQTQEFQGSEDYETALSGKEALSAALRSQNLTKSTENHRLRRSIKKITQELSDLQQERERLEKDLEEAHREKSKGDCTIRDLRNEVEKLRNEVNEREKAMENRYKSLLSESNKKLHNQEQVIKHLTESTNQKDVLLQKFNEKDLEVIQQNCYLMAAEDLELRSEGLITEKCSSQQPPGSKTIFSKEKKQSSDYEELIQVLKKEQDIYTHLVKSLQESDSINNLQAELNKIFALRKQLEQDVLSYQNLRKTLEEQISEIRRREEESFSLYSDQTSYLSICLEENNRFQVEHFSQEELKKKVSDLIQLVKELYTDNQHLKKTIFDLSCMGFQGNGFPDRLASTEQTELLASKEDEDTIKIGEDDEINFLSDQHLQQSNEIMKDLSKGGCKNGYLRHTESKISDCDGAHAPGCLEEGAFINLLAPLFNEKATLLLESRPDLLKVVRELLLGQLFLTEQEVSGEHLDGKTEKTPKQKGELVHFVQTNSFSKPHDELKLSCEAQLVKAGEVPKVGLKDASVQTVATEGDLLRFKHEATREAWEEKPINTALSAEHRPENLHGVPGWQAALLSLPGITNREAKKSRLPILIKPSRSLGNMYRLPATQEVVTQLQSQILELQGELKEFKTCNKQLHQKLILAEAVMEGRPTPDKTLLNAQPPVGAAYQDSPGEQKGIKTTSSVWRDKEMDSDQQRSYEIDSEICPPDDLASLPSCKENPEDVLSPTSVATYLSSKSQPSAKVSVMGTDQSESINTSNETEYLKQKIHDLETELEGYQNFIFQLQKHSQCSEAIITVLCGTEGAQDGLSKPKNGSDGEEMTFSSLHQVRYVKHVKILGPLAPEMIDSRVLENLKQQLEEQEYKLQKEQNLNMQLFSEIHNLQNKFRDLSPPRYDSLVQSQARELSLQRQQIKDGHGICVISRQHMNTMIKAFEELLQASDVDYCVAEGFQEQLNQCAELLEKLEKLFLNGKSVGVEMNTQNELMERIEEDNLTYQHLLPESPEPSASHALSDYETSEKSFFSRDQKQDNETEKTSVMVNSFSQDLLMEHIQEIRTLRKRLEESIKTNEKLRKQLERQGSEFVQGSTSIFASGSELHSSLTSEIHFLRKQNQALNAMLIKGSRDKQKENDKLRESLSRKTVSLEHLQREYASVKEENERLQKEGSEKERHNQQLIQEVRCSGQELSRVQEEVKLRQQLLSQNDKLLQSLRVELKAYEKLDEEHRRLREASGEGWKGQDPFRDLHSLLMEIQALRLQLERSIETSSTLQSRLKEQLARGAEKAQEGALTLAVQAVSIPEVPLQPDKHDGDKYPMESDNSFDLFDSSQAVTPKSVSETPPLSGNDTDSLSCDSGSSATSTPCVSRLVTGHHLWASKNGRHVLGLIEDYEALLKQISQGQRLLAEMDIQTQEAPSSTSQELGTKGPHPAPLSKFVSSVSTAKLTLEEAYRRLKLLWRVSLPEDGQCPLHCEQIGEMKAEVTKLHKKLFEQEKKLQNTMKLLQLSKRQEKVIFDQLVVTHKILRKARGNLELRPGGAHPGTCSPSRPGS

Variants of: B1
Conditions: with tbg1_human TUBG1, P23258
Sequence of tbg1_human TUBG1, P23258 (P23258 whole entry): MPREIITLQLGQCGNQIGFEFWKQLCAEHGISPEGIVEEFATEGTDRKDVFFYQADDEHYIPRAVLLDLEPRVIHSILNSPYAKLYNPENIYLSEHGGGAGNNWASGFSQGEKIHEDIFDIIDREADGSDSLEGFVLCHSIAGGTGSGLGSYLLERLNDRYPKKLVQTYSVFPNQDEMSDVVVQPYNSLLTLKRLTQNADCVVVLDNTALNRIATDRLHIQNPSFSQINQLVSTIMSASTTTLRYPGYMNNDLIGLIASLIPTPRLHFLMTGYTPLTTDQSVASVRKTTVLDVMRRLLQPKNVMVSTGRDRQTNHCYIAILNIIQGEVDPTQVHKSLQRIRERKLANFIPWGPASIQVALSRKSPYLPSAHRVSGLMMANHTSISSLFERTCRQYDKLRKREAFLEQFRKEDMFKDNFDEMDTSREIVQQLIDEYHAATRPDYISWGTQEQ

effect of a mutation on the interaction	Variant
decreasing interaction strength	S140A
